Reference: the supplement of paper PMC10201428
± gives the standard deviation of the averaged measurements.

Tests used:
[1] = system: VchCAST RNA-guided transposition machinery (E. coli BL21(DE3) host, lacZ target); test: relative integration efficiency (T-LR orientation) vs wild-type transposon end (log2 (normalized fold change)); transposon end mutated: right end (5 bp flank + 75 bp right end); higher = more efficient transposition
Outline: (§1)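 Co-transformation of E. coli BL21(DE3) combined a pUC57 mini-transposon donor, holding barcoded pools of 1549 left-end or 1849 right-end variants, with a T7-driven plasmid encoding a CRISPR array, tniQ-cas8-cas7-cas6 and tnsA-tnsB-tnsC. After plating with 0.1 mM IPTG at 37°C for 18 h, input plasmids and genomic integration junctions were PCR-amplified and Illumina-sequenced across two biological output replicates, with four reference barcodes. Relative integration efficiency is the normalised, log-transformed output/input barcode fold change.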

[2] = system: VchCAST RNA-guided transposition machinery (E. coli BL21(DE3) host, lacZ target); test: relative integration efficiency (T-RL orientation) vs wild-type transposon end (log2 (normalized fold change)); transposon end mutated: right end (5 bp flank + 75 bp right end); higher = more efficient transposition
Outline: as §1

Row | Sequence | relative integration efficiency (log2) [1] | relative integration efficiency (log2) [2]
1 | ACATTTGTTGATACAACCATAAAATGATAAAATGACCCATAAATTGATAATTATCACACCCATAAATTGATATTGCCTCTGATCATAGTCAGACCAACATTGCTACGACCCGTATTCGCACCGACAC | 0.143 ± 0.81 | -0.49 ± 0.13
2 | ACATTTGTGGATACAACCATAAAATGATAATTACACCCATAAATTTATTATTATCACACCCAATTTAACTATAACGCTCTGATCATAGTCAGACCAACATTGCTACGACCCGTATTCGCACCGACAC | 1.47 ± 0.11 | -2.14 ± 0.55
3 | ACATTTGTTGATACAACCATAAAATGATAATTACACCCATAAATTCTATATTATCACACCCATAAATTGATATTGCCTCTGATCATAGTCAGACCAACATTGCTACGACCCGTATTCGCACCGACAC | -0.688 ± 0.11 | -2.002 ± 0.013
4 | ACATTTGTTGATACAACCATAAAATGATAATTACACCCATAAAGGGATAATTATCACACCCATAAATTGATATTGCCTCTGATCATAGTCAGACCAACATTGCTACGACCCGTATTCGCACCGACAC | -0.969 ± 0.58 | -0.447 ± 0.064
5 | ACATTTGTTGATACACCCATAAATTGATATTGCCACCCATAAATTGATATTGCTCACAACCATAAAATGATAATTACTCTGATCATAGTCAGACCAACATTGCTACGACCCGTATTCGCACCGACAC | -0.156 ± 0.22 | -0.874 ± 0.16
6 | ACATTTGTTGATACAACCATAAAATGATAATTACACCCATAAATTGATAATTAGACAACCCATAAATTGATATTGCCTCTGATCATAGTCAGACCAACATTGCTACGACCCGTATTCGCACCGACAC | 0.737 ± 0.02 | -0.476 ± 0.18
7 | ACATTTGTTGATACAACCATAAAATGATAATTAATAATTATTTATAATCAGCAACTCACCCATAAATTGATAATTATCAACAAACGCCCGGTCGCGGTACTCTGATCATAGTCAGACCAACATTGCT | -0.174 ± 0.43 | -2.25 ± 0.75
8 | ACATTTGTTGATACAACCATAAAATGATAATTACACCCATCCCGGTCGCCGGCGACACAAACGCCCGGTCGCGGTAAGAGGATCATAGTCAGACCAACATTGCTACGACCCGTATTCGCACCGACAC | 0.414 ± 0.23 | -2.64 ± 0.12
9 | ACATTTGTTGATACAACCATAAAATGATAATTACACCCATAAATTGATAATTATCACCAAAATAAATTGATATTGCCTCTGATCATAGTCAGACCAACATTGCTACGACCCGTATTCGCACCGACAC | 2.72 ± 0.1 | -0.112 ± 0.18
10 | ACATTTGTTGATACAACCATAAAATGATAATTAATAATCACCCATAAATTGATAATTATCAACAAACGCCCGGTCGCGGTACTCTGATCATAGTCAGACCAACATTGCTACGACCCGTATTCGCACC | 0.619 ± 0.018 | -2.77 ± 0.31
11 | ACATTTGTTGATACAACCATAAAATGATAATTACAACCATAAAATGATAATTATCACAACCATAAAGTGATATTTACTCTGATCATAGTCAGACCAACATTGCTACGACCCGTATTCGCACCGACAC | -0.296 ± 0.44 | -0.175 ± 0.14
12 | ACATTTGTGGATCCAACCATAAAATGATAATTACACCCATAAATTCATAATTATCACACCCAATTTAACTATAACGCTCTGATCATAGTCAGACCAACATTGCTACGACCCGTATTCGCACCGACAC | 1.043 ± 0.0096 | -2.04 ± 0.41
13 | ACATTTGTTGATACAACCATAAAATTCGCCGGCACAAACGCCCGGTCGCCGGCGACACAAACGCCCGGTCGCGGTAAGAGGATCATAGTCAGACCAACATTGCTACGACCCGTATTCGCACCGACAC | -0.949 ± 0.46 | -4.45 ± 0.73
14 | ACATTTGTTGATACAACCATTTAATGATAATAACACCCATAAAATGATAATTATCACACCCAATTTAACTATAACGCTCTGATCATAGTCAGACCAACATTGCTACGACCCGTATTCGCACCGACAC | 2.01 ± 0.13 | -1.14 ± 0.26
15 | ACATTTGTTGATACCACCATCAAATGGTAATTCCACCCCTAAATTGATAATTATCACACCCAATTTAACTATAACGCTCTGATCATAGTCAGACCAACATTGCTACGACCCGTATTCGCACCGACAC | -4 ± 0.18 | -6.33 ± 0.84
16 | ACATTTGCTGATAGAACCATTTAATGATAATAACACCCATAAAATGATAATTATCACACCCAATTTAACTATAACGCTCTGATCATAGTCAGACCAACATTGCTACGACCCGTATTCGCACCGACAC | -2.38 ± 0.95 | -3.66 ± 0.41
17 | ACATTTGTTGATACAACCATAAAATGATAATTACACCCATAAATTCTTAATTATCACACCCATAAATTGATATTGCCTCTGATCATAGTCAGACCAACATTGCTACGACCCGTATTCGCACCGACAC | -1.33 ± 0.28 | -1.43 ± 0.18
18 | ACATTTGTTGATACAACCATAAAATGATAATTACACCCATAAATTGATAATTATCACACCCATAAATTGATATTGCCTCTGATCATAGTCAATGTGATAACAATCACAGAAGACCAAGCACCGACAC | -0.0829 ± 0.35 | 0.245 ± 0.16

Row | Sequence | relative integration efficiency (log2) [1] | relative integration efficiency (log2) [2]
19 | ACATTTGTGGATACAACCCTAAAATGATAATTACACCCATAAATTGATCATTATCACACCCAATTTAACTATAACGCTCTGATCATAGTCAGACCAACATTGCTACGACCCGTATTCGCACCGACAC | 0.117 ± 0.091 | -3.19 ± 0.51
20 | ACATTTGTTGATACAACCATAAAATGATAATTACACCCATAAATTGATCCGGCGACACAAACGCCCGGTCGCGGTAAGAGGATCATAGTCAGACCAACATTGCTACGACCCGTATTCGCACCGACAC | 2.09 ± 0.1 | -0.942 ± 0.11
21 | ACATTTGTTGATACAACCATAAAATGATAATTACACCCATAAATTGATAATTATCACACCCCGCCCGGTCGCGGTAAGAGGATCATAGTCAGACCAACATTGCTACGACCCGTATTCGCACCGACAC | 2.47 ± 0.19 | -0.532 ± 0.054
22 | ACATTTGTTGATACACCCATAAATTGATAATTACAACCATAAGTTGATATTTTTCACACCCATAAATTGATAATTACTCTGATCATAGTCAGACCAACATTGCTACGACCCGTATTCGCACCGACAC | 0.055 ± 0.036 | -0.622 ± 0.16
23 | ACATTTGTTGATACAACCATAAAATGATAATTACACCCATCCATTGATAATTATCACACCCATAAATTGATATTGCCTCTGATCATAGTCAGACCAACATTGCTACGACCCGTATTCGCACCGACAC | -1.63 ± 1 | -1.21 ± 0.089
24 | ACATTTGTTTATACAACCATAAAATGATAATTACACCCATAAATTCATTATTATCACACCCAATTTAACTATAACGCTCTGATCATAGTCAGACCAACATTGCTACGACCCGTATTCGCACCGACAC | -0.961 ± 0.16 | -3.21 ± 0.16
25 | ACATTTGTTGATACAACCATATATTGATATCTCCAACCATAAAATGATAATTATCACACCCATAAATTGATATTGCCTCTGATCATAGTCAGACCAACATTGCTACGACCCGTATTCGCACCGACAC | -0.381 ± 0.023 | -0.212 ± 0.018
26 | ACATTTGTTGATACAACCATAAAATGATAATTACAACCATAAAATGATAATTATCAGTGGGTATTTAACTATAACGCTCTGATCATAGTCAGACCAACATTGCTACGACCCGTATTCGCACCGACAC | 2.54 ± 0.061 | -0.267 ± 0.21
27 | ACATTTGTTGATACAACCATAAAATGATAATTACACCCATAAATTGATAATTATCACACCCATAAATTGATATTGCCTCTAAAGTGTACAACACTTGAGAAAGTTTACTACAGGTATGCACCGACAC | 0.483 ± 0.017 | -0.293 ± 0.28
28 | ACATTTGTTGATACAACCATCAAATGGTAATTACACCCATACATTGATAATTATCACACCCAATTTAACTATAACGCTCTGATCATAGTCAGACCAACATTGCTACGACCCGTATTCGCACCGACAC | -1.54 ± 0.61 | -4.04 ± 0.11
29 | ACATTTGTTGATACAACCATAAAATGATAATTACACCCATAAATTCATCATTATCACCCCCAATTTAACTATAACGCTCTGATCATAGTCAGACCAACATTGCTACGACCCGTATTCGCACCGACAC | 1.45 ± 0.16 | -1.8 ± 0.25
30 | ACATTTGTTGATACAACCATAAAATGATAATTACACCCATAAATTGATAATTATCACACCCATAAATTGATATTGCCTCTTTATGCAGGACGACGTACGCGTTCCATATAAACCTGTGCACCGACAC | -0.104 ± 0.19 | 0.021 ± 0.25
31 | ACATTTGTTGATACAACCATAAAATGATAATTACACCCATAAATTGATTCACACCCATAAATTGATATTGCCTCTGATCATAGTCAGACCAACATTGCTACGACCCGTATTCGCACCGACACTGACT | 2.09 ± 0.12 | -1.49 ± 0.24
32 | ACATTTGTTGATACAACCATAAAATGATAATTACACCCATAAATTGATATTGCTCACAACCATATATTGATATCTCCTCTGATCATAGTCAGACCAACATTGCTACGACCCGTATTCGCACCGACAC | 0.579 ± 0.21 | -0.74 ± 0.17
33 | ACATTTGTTGATACAACCATAAAGTGATATTTACAACCATAAAGTGATATTTATCACAACCATATATTGATATCTCCTCTGATCATAGTCAGACCAACATTGCTACGACCCGTATTCGCACCGACAC | 0.458 ± 0.14 | 0.115 ± 0.19
34 | ACATTTGTTGATACCACCATCAAATGATAATTACACCCCTAAATTGATAATTATCACACCCAATTTAACTATAACGCTCTGATCATAGTCAGACCAACATTGCTACGACCCGTATTCGCACCGACAC | -1.78 ± 0.038 | -4.72 ± 0.056
35 | ACATTTGTTGATACAACCATAAAATGATAATTAACCCCATAAATTGATAATTATCACACCCATAAATTGATATTGCCTCTGATCATAGTCAGACCAACATTGCTACGACCCGTATTCGCACCGACAC | -0.881 ± 0.17 | -0.822 ± 0.075
